T1: CEACAM5 (CD66e) on tumour cells (human, UniProt P06731 35-685, glycosylated (natural, as on tumour cells))
T1 construct: whole, on cells; One molecule for CEACAM5 on all three cell lines; the cell line is named under assay; also called natural CEACAM5 antigen; Lovo cells
T1 sequence (looked up): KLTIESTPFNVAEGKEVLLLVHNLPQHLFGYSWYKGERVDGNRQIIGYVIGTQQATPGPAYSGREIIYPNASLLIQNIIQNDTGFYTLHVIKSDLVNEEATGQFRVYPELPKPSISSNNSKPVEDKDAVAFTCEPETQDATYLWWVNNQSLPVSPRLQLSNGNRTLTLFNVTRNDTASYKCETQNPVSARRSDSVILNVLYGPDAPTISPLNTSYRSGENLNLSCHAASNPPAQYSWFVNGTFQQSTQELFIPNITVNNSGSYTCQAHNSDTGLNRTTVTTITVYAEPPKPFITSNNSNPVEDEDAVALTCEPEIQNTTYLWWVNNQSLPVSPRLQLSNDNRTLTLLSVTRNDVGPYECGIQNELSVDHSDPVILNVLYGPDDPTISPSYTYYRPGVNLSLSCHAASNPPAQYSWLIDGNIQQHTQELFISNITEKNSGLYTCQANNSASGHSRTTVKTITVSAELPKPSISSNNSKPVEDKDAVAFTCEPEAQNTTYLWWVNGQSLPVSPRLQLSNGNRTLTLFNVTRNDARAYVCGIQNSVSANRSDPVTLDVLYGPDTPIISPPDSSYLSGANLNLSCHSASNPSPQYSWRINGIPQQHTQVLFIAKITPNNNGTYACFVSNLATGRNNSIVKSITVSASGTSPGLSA

T2: recombinant CEACAM5 antigen (Sinobiological, 11077-H08H) (UniProt P06731 35-685)
T2 construct: Bought protein; also called CEACAM5-His recombinant protein; CEACAM5-His antigen; not shown: His tag
T2 sequence (looked up): T1 sequence (looked up)

B1: M18 (7G1) chimeric recombinant antibody (antibody, V domains shown)
VH: QIQLVQSGPELKKPGETVKISCKASGYTFTTYGMTWVKQAPGKGLKWMGWINTYSGVPTYIDDFKGRFAFSLETSASTAYLQINNLKNEDTATYFCGRKDLLGFMDYWGQGTSVTVSS
VL: DIQMTQSPSSLSASLGGKVTITCKTSQDINKFMAWYQHKPGKGPRLLIRYTSTLQPGIPSRFSGSGSGRDYSFSIRNLEPEDIATYYCLQYDDLTWTFGGGTKLEI
B2: M17 (6A8) chimeric recombinant antibody (antibody, V domains shown)
VH: EVQLQQSGAELVRPGASVKLSCTASGFNIKDDYMHWVKQRPEQGLEWIGWIDPENGDTEYASKFQGKATITADTSSNTAYLLLSSLTSEDTAVYYCTTIYYYGSRGAMDYWGQGTSVTVSS
VL: QIVLTQSPAIMSASPGEKVTITCSASSSVSYMHWFQQKPGTSPKLWIYTTSTLASGVPARFSGSGSGTSYFLTISRMEAEDAATYYCHQRSSYPLTFGAGTKLELK

How the values were obtained:
[1] = target: T1, CEACAM5 (CD66e) on tumour cells; assay: flow cytometry on KATO3 cells, anti-human IgG Fc-APC
Description: (§1) After the cells were digested with TrypLE, they were centrifuged and resuspended in DPBS solution containing 2% BSA (FACS buffer solution, 4° C.), and added into a U-bottom 96-well plate, 5×10⁵/100 μl/well, and antibody diluted in concentration gradient was added, incubated at 4° C. for 1 hour, the supernatant was discarded after centrifugation; 100 μl of solution containing anti-human IgG Fc-APC secondary antibody was added and incubated at 4° C. for 1 hour, washing was performed once with FACS buffer, resuspending was performed in 200 μl FACS buffer, and the fluorescence signal value was read on BD Cantoll.

[2] = target: T1, CEACAM5 (CD66e) on tumour cells; assay: flow cytometry on LS174T cells, anti-human IgG Fc-APC
Description: as §1

[3] = target: T2, recombinant CEACAM5 antigen …; assay: ELISA, coated recombinant CEACAM5-His 1 µg/ml, anti-human IgG Fc-HRP
Description: The recombinant CEACAM5 antigen (Sinobiological, 11077-H08H) was diluted to 1 μg/ml with DPBS solution, added to a 96-well plate, 100 μl per well, and coated overnight at 2-8° C.; the coating solution was discarded, washing was performed twice with PBS solution, PBS solution containing 2% BSA was added, and blocked at room temperature for 2 hours; the blocking solution was discarded, the antibody diluted in concentration gradient was added, and incubated at 37° C. for 1 hour; the antibody solution was discarded, and washing was performed for 4 times with PBS solution containing 0.05% Tween 20 (PBST solution); anti-human IgG Fc-HRP secondary antibody was added and incubated at 37° C. for 30 minutes; washing was performed for 4 times with PBST solution, TMB chromogenic substrate was added, color development was performed for 5-10 minutes, and the reaction was terminated with equal volume of 1M H₂SO₄; the absorbance at 450 nm was read on a microplate reader.

Binder	EC50 [1]	EC50 [2]	EC50 [3]
B1	13.9 µg/mL	11.9 µg/mL	0.016 µg/mL
B2	2.7 µg/mL	1.5 µg/mL	0.013 µg/mL
